{"source": "patent US8597922B2", "about": "“Methods and compositions for producing olefins” (LS9, Inc., priority 2007, dated 2013)", "molecules": {"B1": {"name": "ORF880: olefin-producing enzyme (fatty acid decarboxylase) from Jeotgalicoccus sp. ATCC 8456, SEQ ID NO:2 (protein)", "chain": "MATLKRDKGLDNTLKVLKQGYLYTTNQRNRLNTSVFQTKALGGKPFVVVTGKEGAEMFYNNDVVQREGMLPKRIVNTLFGKGAIHTVDGKKHVDRKALFMSLMTEGNLNYVRELTRTLWHANTQRMESMDEVNIYRESIVLLTKVGTRWAGVQAPPEDIERIATDMDIMIDSFRALGGAFKGYKASKEARRRVEDWLEEQIIETRKGNIHPPEGTALYEFAHWEDYLGNPMDSRTCAIDLMNTFRPLIAINRFVSFGLHAMNENPITREKIKSEPDYAYKFAQEVRRYYPFVPFLPGKAKVDIDFQGVTIPAGVGLALDVYGTTHDESLWDDPNEFRPERFETWDGSPFDLIPQGGGDYWTNHRCAGEWITVIIMEETMKYFAEKITYDVPEQDLEVDLNSIPGYVKSGFVIKNVREVVDRT", "modifications": "Jeotgalicoccus sp. ATCC8456"}}, "key": {"B. subtilis IHA01": {"tested_on": "B. subtilis IHA01", "assay": "α-Olefin production in Bacillus subtilis by heterologous expression", "assay_type": "cell-based", "settings": "0.05% stearic acid, versus vector only control", "procedure": "Genomic DNA encoding Jeotgalicoccus ATCC 8456_orf880 was cloned into the BamHI and XbaI sites of vector pHT01 under the control of the Pgrac promoter. B. subtilis IHA01 (lacA::spec leuB8 metB5 r(−)m(+) Sp, obtained from Bacillus Genetic Stock Center, Columbus, Ohio, strain number BGSC 1A785) was transformed with the resulting vector. The B. subtilis cells were grown at 37° C. in minimal medium supplemented with 2% glucose, 0.3 mM leucine, 0.3 mM methionine, and 10 mg/L chloramphenicol. When the cultures reached an OD600 of 0.8 to 1.0, 1 mM IPTG was added (to induce expression of orf880) along with 0.5 mM 5-amino laevulinic acid (as a precursor for heme biosynthesis) and 0.05% stearic acid (as a substrate for ORF880). The temperature was shifted to 25° C. and after growth for additional 18-24 h at 25° C., cells from a 1 mL culture were pelleted, resuspended in 100 μL methanol, sonicated for 1 h, and extracted with 300 μL ethyl acetate. 300 μL of water was added before separating the organic layer by centrifugation at 15,000 rpm for 5 min. The solvent layer was analyzed by GC-MS.\nGenomic DNA encoding Corynebacterium efficiens YS-134 orfCE2459 was cloned into the BamHI and XbaI sites of vector pHT01 under the control of the Pgrac promoter and transformed into B. subtilis IHA01 cells. The resulting cells were grown, extracted, and analyzed as described in Example 9."}, "[1]": {"assay": "Specific activity of α-olefin and α/β-hydroxy fatty acid formation by purified enzymes", "assay_type": "biochemical", "settings": "500 μM H2O2, 200 μM potassium hexadecanoate", "procedure": "The specific activity of α-olefin formation as well as α-(2) and β-(3)hydroxy fatty acid formation were determined for ORF880, CYP152A1, and CYP152A1 Q85H (see Examples 12 and 16). An E. coli BL21 strain (DE3) (Invitrogen) was transformed with either pET15b-orf 880, pET15b-cyp152A1, and pET15b-cyp152A1 Q85H using routine chemical transformation techniques. Protein expression was carried out by first inoculating a colony of the E. coli strain in 5 mL of LB media supplemented with 100 mg/L of carbenicillin and shaken overnight at 37° C. to produce a starter culture. This starter culture was used to inoculate 0.5 L of LB media supplemented with 100 mg/L of carbenicillin. The culture was shaken at 37° C. until an OD600 value of 0.6 was reached. The culture was placed on ice for 10 min before IPTG was added to a final concentration of 250 μM. The culture was shaken at 25° C. for approximately 18 h, and then centrifuged at 3,700 rpm for 20 min at 4° C. The pellet was then resuspended in 10 mL of buffer containing 100 mM sodium phosphate buffer at pH 7.2 supplemented with Bacterial ProteaseArrest (GBiosciences). The cells were then sonicated at 12 W on ice for 9 sec with 1.5 sec of sonication followed by 1.5 sec of rest. This procedure was repeated 5 times with one min intervals between each sonication cycle. The cell free extract was centrifuged at 10,000 rpm for 30 min at 4° C. 5 mL of Ni-NTA (Qiagen) was added to the supernatant, and the mixture was gently stirred at 4° C. The slurry was passed over a column removing the resin from the lysate. The resin was then washed with 30 mL of buffer containing 100 mM sodium phosphate buffer at pH 7.2 plus 30 mM imidazole. Finally, the protein was eluted with 15 mL of 100 mM sodium phosphate buffer at pH 7.2 plus 250 mM imidazole. The protein solution was dialyzed with 200 volumes of 100 mM sodium phosphate buffer at pH 7.2 with 20% glycerol. Protein concentration was determined using the Bradford assay (Biorad). 578 μg/mL of ORF880, 865 μg/mL of CYP152A1, and 653 μg/mL of CYP152A1 Q85H protein was obtained.\nTo determine the specific activity with potassium hexadecanoate, the following reactions were set-up where each time point consisted of 500 μL. Each reaction contained of 500 μM H2O2, 200 μM of potassium hexadecanoate, 100 mM sodium phosphate buffer at pH 7.2, and protein at the following concentrations: ORF880-0.23 or 0.46 μM; CYP152A1-8.65, 17.3, or 34.6 μM; CYP152A1 Q85H-6.53, 13.06, or 26.12 μM. The reactions were carried out at room temperature and time points were taken at 0, 1, 3, 5, 7, 10, 14, and 20 minutes. Reactions were quenched with 50 μL of 12 M HCl and then extracted with 200 μL of ethyl acetate. 50 μL of this extract was then reacted with 50 μL N,O-Bis(trimethylsilyl)trifluoroacetamide with trimethyl-chlorosilane (Aldrich). Samples were analyzed using GC/MS using the following parameters: run time: 20 min; column: HP-5-MS Part No. 190915-433E (length of 30 meters; I.D.: 0.25 mm narrowbore; film: 0.25 μM); inject: 1 μL Agilent 6850 inlet; inlet: 300° C. splitless; carrier gas: helium; flow: 1.3 mL/min; oven temp: 100° C. hold 5 min, 320° C. at 20° C./min, 320° C. hold 5 min; det: Agilent 5975B VL MSD; det. temp: 300° C.; scan: 50-500 M/Z. Calibration curves were generated using 1-pentadecene, α(2)-hydroxyhexadecanoic acid, and β(3)-hydroxyhexadecanoic acid dissolved in ethyl acetate and derivatized as described herein.\nBased upon this analysis, product formation was determined to be linear within the first three minutes. The specific activities for each enzyme concentration in the linear range were averaged for a given reaction (e.g., decarboxylation, α-hydroxylation, or β-hydroxylation). FIG. 21 summarizes the results. The specific activity for 1-pentadecene formation was similar for ORF880 and CYP152A1. Mutating the glutamine 85 residue to a histidine increased the specific activity of 1-pentadecene formation (i.e., increased fatty acid decarboxylase activity). […]"}}}
{"molecule": "B1", "values": [{"measurement": "α-olefin produced from stearic acid", "setting": "B. subtilis IHA01", "result": "1-heptadecene"}, {"measurement": "rate of hydroxyhexadecanoic acid production relative to the rates of the two CYP152A1 enzymes", "setting": "[1]", "result": "about 1/50"}, {"measurement": "specific activity for 1-pentadecene formation", "setting": "[1]; pH 7.2, room temperature, comparison between enzymes", "result": "similar"}]}
